Experiments:
[1] = molecular target: Boxer virus (BV, GI.8) P domain, wild type, as P particle (Boxer virus (human norovirus GI.8)); assay: SEC; gel filtration on Superdex 200 followed by SDS-PAGE; P particles form a peak at 830 kDa
[2] = molecular target: Boxer virus (BV, GI.8) VP1 P domain, Q227-L526 (P dimer) (Boxer virus (human norovirus GI.8)); assay: crystal structure; P protein at 10 mg/mL (native) or 14 mg/mL with Le^b or Le^y tetrasaccharide, hanging drop, 0.1 mol/L LiCl, 18% PEG 3350, 10% MPD, 16°C; space group P6_(1), two protomers in the asymmetric unit

Row | Substance | efficiency of P particle formation [1] [%] | stoichiometry N [2]
1 | Boxer virus (BV, GI.8) P domain, wild type, as P particle (domain or fragment) | 80 | –
2 | Boxer virus (BV, GI.8) VP1 P domain, Q227-L526 (P dimer) (domain or fragment) | – | 2

From paper PMC4312760
